According to publication PMC11542851 (PLOS Pathogens, 2024):

biological target: T1, SARS-CoV-2 Wuhan-Hu-1 recombinant spike protein (trimer) (SARS-CoV-2 Wuhan-Hu-1, UniProt P0DTC2); test: ELISA; conditions: both partners purified
T1 construct: source: bought: Sino Biologics

Binder | binding result
C68.183 (antibody, V domains shown) VH: EVQLLESGGGLVQPGGSLRLSCVASGFTFRNFAMSWVRQAPGKGLEWVSAISGSGDSTYYADSVKGRFTISRDNSKNTLYLQVNSLRVEDTAIYYCAKGSRGSTDYFDSWGQGTLVTVSS VL: not shown | binds
C68.200 (antibody, V domains shown) VH: EVQLLESGGGLVQPGGSLRLSCTASGFTFSRYALTWVRQAPGKGLEWVSAISGSGGNTNYADSVKGRFTISRDNSKNTLYLQMNSLRAEDTAVYYCAKSPRYNNDYFDFWGQGTLVTVSS VL: DIQLTQSPSTLSASVGDRVTITCRASQSISSWLAWYQQKPGKAPKLLIYDASSLESGVPSRFSGSGSGTEFTLTISSLQPDDFATYYCQQYNTFITFGHGTRLEIK | binds
C68.203 (antibody, V domains shown) VH: EVQLLESGGGLVQPGGSLRLSCTASGFTFSRYALTWVRQAPGKGLECVSAFSGSGDSTYYADSVKGRFTISRDNSKNTLYLQMNSLRAEDTAVYYCAKSPRYNSDYFDFWGQGTLVTVSS VL: DIQLTQSPSTLSASVGDRVTITCRASQSISSWLAWYQQKPGKAPKLLIYDASSLESGVPSRFSGSGSGTEFTLTISSLQPDDFATYYCQQYNSFITFGQGTRLEIK | binds
C68.185 (antibody, V domains shown) VH: QVQLVQSGAEVKKPGASVKVSCKTSGYAFTDHYVHWVRQAPGQGLEWMGVINPSGVGTSYAQMFQDRVTLTSDTSTSTVYMVLSSLRSEDTAVYYCVRDDYGVPARGWFDPWGQGTLVTVSS VL: EVVLTQSPATLSLSPGERATLSCRASQSISSYLAWYQQKPGQAPRLLIYDASNRATGVPARFSGSGSGADFTLTISSLEAEDFALYYCQHRSNWLYTFGQGTKLEIK | binds
C68.88 (antibody, V domains shown) VH: QVQLQESGPGLVKPSETLSLTCSVSGGPISSSRYYWGWIRQSPGEGLEWIGTIYYSGSTYYNPSFKSRVTISVDTSKNQFSLKLSSVTAADTAVYYCATRCYDFWSGYYNREMLWFDCWGQGTLVTVSS VL: NFMLTQPHSVSESPGKTVTISCTRSSGSIASNYVQWYQQRPGSSPTTVIYENNQTPSGVPDRFSGSIDSSSNSASLTISGLKTEDEADYYCQSYDSSVVVFGGGTKLTVL | binds
C68.83 (antibody, V domains shown) VH: EVQLVESGGGVVQPGRSLRLSCAASGFIFSSYGMHWVRQAPGKGLEWVAVIWYDGSNKYYADSVKGRFTISRDNSKNTLYLQMNSLRAEDTAVYYCARDDPEVGCSGGSCYYYYDMDVWGQGTTVTVSS VL: SYELTQPPSVSVSPGQTARITCSGDALPKQHAHWYQQKPGQAPVLVIYKDIERPSGIPERFSGSSSGTTVTLTISGVQAEDEADYYCQSADSSVTYVVFGGGTKLTVL | binds
C68.239 (antibody, V domains shown) VH: EVQLLESGGGLVQPGGSLRLSCAASGFTFSSYAMSWVRQAPGKGLEWVSAISGGGDNTYYADSVKGRFTISRDNSKNTLYLQMNSLRAEDTAVYFCAKNPITVVPAAWDRGYFDLWGRGTLVTVSS VL: SYELTQPPSVSVAPRKTARITCGGNNIGSYSVHWYQQRPGQAPVLVVHDDSDRPSGIPERFSGSNSGNTATLTISRVEAGDEADYYCQVWDSSSDHRGVFGGGTKLTVL | binds
C68.327 (antibody, V domains shown) VH: EVQLLESGGGLVQPGGSLRLSCAASGFTFGSYAMSWVRQAPGKGLEWVSAISGSGGSTYYADSVKGRFTISRDNSKNTLYLQMNSLRAEDTAVYNCAKDLWDGFHWFDSWGQGTLVTVSS VL: DIQMTQSPSSVSASVGDRVTITCRASQGISSWLAWYQQKPGKAPNLLIYSASSLQSGVPSRFSGSGSGTDFTLTISSLQPEDFATYYCQQANSFPITFGQGTRLEIK | binds
C68.348 (antibody, V domains shown) VH: QVQLQESGPRLVKSSGTLSLTCAVSGGSISSSKWWSWVRQPPGKGLEWIGEVYHGGSTNYNPSLKSRVTISVDKAKNQFSLKLSSVTAADSAVYYCASLDSAAVFDYWGQGTLVTVSS VL: QSALTQPASVSGSPGQSITISCTGTSSDVGRFNYVSWYQQHPGKAPKLLIYDVSNRPSGVSNRFSGSKSGNTASLTISGLQAEDEADYYCNSYTSSSTLYVFGTGTKVTVL | binds
C68.175 (antibody, V domains shown) VH: EVQLLESGGGLVQPGGSLRLSCAASGFTFSSYAMSWVRQAPGKGLEWVSGISGSGGSTYYADSVKGRFTISRDNSKNTLHLQMNSLRAEDTAVYYCAKGSRWNPDYFDYWGQGTLVTVSS VL: not shown | binds
C68.121 (antibody, V domains shown) VH: EVQLVESGGGLVKPGGSLRLSCAASGFTFSDYYMTWIRQAPGKGLEWVSKITNSNSYTHYADSVKGRFTISRDNAKNSLFLHMNSLRAEDTAVYYCARAIWIGYPDDYYMDVWGKGTTVTVSS VL: SYELTQPPSVSVSPGQTARITCSGDTLPNQYVYWYQQKPGQAPVLLIYKDTERPSGIPERVSGSTSGTTVTLTISGVQAEDEADYYCQSADSSGTSFGGGTKLTVL | binds
